In assay [1] the target is mouse insulin (mouse). In words: ELISA on mouse insulin; No Ag well 0.10. Background: An ELISA detects its analyte on a solid surface through an enzyme-linked reagent.
For assay [2], the target named is rat insulin (rat). Briefly: ELISA on rat insulin; No Ag well 0.10.

Sequence of mouse insulin (mouse) (P01308 whole entry): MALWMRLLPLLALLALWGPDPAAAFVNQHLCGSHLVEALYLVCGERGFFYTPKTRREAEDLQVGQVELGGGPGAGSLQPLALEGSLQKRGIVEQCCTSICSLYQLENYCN

Regarding “positive control anti-rat insulin antibody”, the OD 450 is 2.52 OD 450 in assay [1] and 3.06 OD 450 in assay [2].

These data come from patent publication US20070196376A1.
